Patent publication US20100184134A1 (SUTRO BIOPHARMA, published 2010)
Changes are numbered by the printed parent chain. In names and notes the source's numbering stands.

Tests used:
[1] = molecular target: T1, E. coli PheT subunit of phenylalanyl-tRNA synthetase (E. coli, UniProt P07395 1-795); experiment: IMAC pull-down of cell-free produced PheRS(A294G)
T1 construct: also called PheT domain
T1 sequence: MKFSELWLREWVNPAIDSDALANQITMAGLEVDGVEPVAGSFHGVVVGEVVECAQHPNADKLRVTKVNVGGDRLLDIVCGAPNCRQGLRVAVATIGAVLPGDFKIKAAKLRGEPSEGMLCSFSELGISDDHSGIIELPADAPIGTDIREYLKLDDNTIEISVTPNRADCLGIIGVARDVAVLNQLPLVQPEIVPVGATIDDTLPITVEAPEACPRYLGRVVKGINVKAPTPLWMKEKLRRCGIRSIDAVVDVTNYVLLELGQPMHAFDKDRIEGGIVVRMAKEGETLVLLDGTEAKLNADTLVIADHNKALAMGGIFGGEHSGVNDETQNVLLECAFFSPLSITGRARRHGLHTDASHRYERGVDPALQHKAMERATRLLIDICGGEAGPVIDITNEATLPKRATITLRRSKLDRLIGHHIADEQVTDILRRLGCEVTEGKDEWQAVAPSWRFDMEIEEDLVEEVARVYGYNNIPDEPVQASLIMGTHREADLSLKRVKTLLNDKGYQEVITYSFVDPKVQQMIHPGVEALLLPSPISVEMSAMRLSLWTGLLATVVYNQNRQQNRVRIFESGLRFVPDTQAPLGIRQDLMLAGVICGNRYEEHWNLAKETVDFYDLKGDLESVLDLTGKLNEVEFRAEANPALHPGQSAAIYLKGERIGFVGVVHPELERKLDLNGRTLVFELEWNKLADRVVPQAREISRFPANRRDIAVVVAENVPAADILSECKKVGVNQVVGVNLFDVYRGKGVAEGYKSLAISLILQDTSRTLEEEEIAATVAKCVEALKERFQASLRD

PheT MP = molecular target: T2, PheT MP (E. coli, UniProt P07395 1-795); experiment: IMAC co-purification after cell-free co-synthesis of PheS(A294G) and PheT variant
T2 construct: also called PheT R794M R788P
T2 sequence: T1 sequence with R788P, R794M

PheT AP = molecular target: T3, PheT AP (E. coli, UniProt P07395 1-795); experiment: as above
T3 construct: also called PheT R794A A791P
T3 sequence: T1 sequence with A791P, R794A

PheT K = molecular target: T4, PheT K (E. coli, UniProt P07395 1-795); experiment: as above
T4 construct: also called PheT R794K
T4 sequence: T1 sequence with R794K

PheT KV = molecular target: T5, PheT KV (E. coli, UniProt P07395 1-795); experiment: as above
T5 construct: also called PheT R794K A15V
T5 sequence: T1 sequence with A15V, R794K

Measured: binding result

B1: 6X His-tagged E. coli PheS(A294G) subunit of phenylalanyl-tRNA synthetase (enzyme)
chain: MSHLAELVASAKAAISQASDVAALDNVRVEYLGKKGHLTLQMTTLRELPPEERPAAGAVINEAKEQVQQALNARKAELESAALNARLAAETIDVSLPGRRIENGGLHPVTRTIDRIESFFGELGFTVATGPEIEDDYHNFDALNIPGHHPARADHDTFWFDTTRLLRTQTSGVQIRTMKAQQPPIRIIAPGRVYRNDYDQTHTPMFHQMEGLIVDTNISFTNLKGTLHDFLRNFFEEDLQIRFRPSYFPFTEPSAEVDVMGKNGKWLEVLGCGMVHPNVLRNVGIDPEVYSGFGFGMGMERLTMLRYGVTDLRSFFENDLRFLKQFK
notes: also called 6XHisPheS(A294G); PheS(A294G) domain
binds: [1] | PheT MP | PheT AP | PheT K | PheT KV
